# Results as given in patent publication US20250145684A1.
# Read-outs that look alike come from different tables or passages of the source.
# Molecular target: HLA-B*08:01 (human)
# Assay: UV peptide exchange ELISA
Binder,peptide exchange yield,peptide exchange yield (remark: other sources report otherwise)
FAFEKLIQF (modifications not checked) [… (SEQ ID NO: 101)],50 to 75%,
EPVTKAEM [EPVTKAEM (SEQ ID NO: 97)],,50 to 75%
